In paper PMC6472337, “L amino acid transporter structure and molecular bases for the asymmetry of substrate interaction” (Nature Communications, 2019):
Residue numbers refer to the chain shown, from its start. In names and notes the source's numbering stands.

What was measured:
[1] = tested on: BasC wild-type; assay: [3H]L-alanine transport (influx, efflux, exchange) in BasC proteoliposomes; assay type: biochemical, Carnobacterium sp AT7; details: for 10 μM [3H]L-alanine exchange into BasC PLs containing 4 mM of the indicated compound: 4 mM compound inside PLs, n=1-3 and mean
Method: BasC-GFP protein was reconstituted in E. coli polar lipids (Sigma-Aldrich, Madrid, Spain), as previously described. Lipids were dried under N2 and suspended in reconstitution buffer (20 mM Tris-Base, 150 mM NaCl, pH 7.4). The suspension was sonicated to clarity and purified BasC protein was added to reach the desired protein to lipid ratio of 1:100 (w:w). To destabilize the liposomes, 1.25% ß-D-octylglucoside was added and the mixture was incubated on ice with occasional agitation for 5 min. DDM and ß-D-octylglucoside were removed by dialysis for 40 h at 4 °C against 100 volumes of dialysis buffer. Proteoliposome (PL) suspensions were frozen in liquid N2 and stored at −80 °C until use.
For uptake experiments, the desired intraliposomal amino acid concentration was added to the PL suspension, which was then subjected to three freeze/thaw cycles. The extraliposomal amino acid content was then removed by ultracentrifugation (100,000 × g for 1 h at 4 °C) and PLs were resuspended to one-third of the initial volume with reconstitution buffer. Amino acid uptake assays were initiated after mixing 10 μl of cold PLs with 180 μl of transport buffer (20 mM Tris-Base, 150 mM NaCl, pH 7.4 plus 0.5–1 µCi/180 µl of radiolabeled L-amino acid (Perkin Elmer, Waltham, MA)) supplemented with the unlabeled amino acid to the desired concentration. This mixture was then incubated at room temperature for the indicated periods. […] Filters were then washed twice with 2 ml of stop buffer and dried, and the trapped radioactivity was counted. Transport measured in PLs containing no amino acid was subtracted from each data point to calculate the net exchange. […] BasC protein in PLs was determined by Coomassie blue staining in SDS-PAGE gels compared with known amounts of BasC in DDM micelles, determined by BCA assay (Pierce, Rockford, IL) and loaded in the same gel.

[2] = tested on: AdiC; parameters: method as in PMID 22304019; details: cited from earlier work
[3] = substrate: C[C@H](N)C(=O)O; assay: cells, lysate or membranes; details: other: L-alanine uptake, pH 7.4, 37.0 °C
[4] = molecular target: T1, bacterial alanine-serine-cysteine exchanger (BasC), wild-type, purified for crystallography (Carnobacterium sp. AT7); assay: crystal structure; BasC incubated with Nb74 at 1:1.2, complex purified by SEC in 0.17% DM; sitting-drop vapor diffusion at 4 °C, 27–29% PEG 400, 0.1 M ammonium acetate pH 8; apo (2.9 Å) and with 100 mM 2-AIB (3.4 Å); details: both partners purified
T1 construct: BasC, bacterial alanine-serine-cysteine exchanger, a prokaryotic L-type amino acid transporter (LAT); In the transport assays (functional rows) BasC stood as uncleaved BasC-GFP reconstituted in E. coli polar lipid proteoliposomes; also called WT; source: E. coli BL21 Star (DE3), purified in DM (Ni2+-NTA, on-column HRV-3C cleavage); not shown: GFP, C-terminal, cleaved
T1 chain: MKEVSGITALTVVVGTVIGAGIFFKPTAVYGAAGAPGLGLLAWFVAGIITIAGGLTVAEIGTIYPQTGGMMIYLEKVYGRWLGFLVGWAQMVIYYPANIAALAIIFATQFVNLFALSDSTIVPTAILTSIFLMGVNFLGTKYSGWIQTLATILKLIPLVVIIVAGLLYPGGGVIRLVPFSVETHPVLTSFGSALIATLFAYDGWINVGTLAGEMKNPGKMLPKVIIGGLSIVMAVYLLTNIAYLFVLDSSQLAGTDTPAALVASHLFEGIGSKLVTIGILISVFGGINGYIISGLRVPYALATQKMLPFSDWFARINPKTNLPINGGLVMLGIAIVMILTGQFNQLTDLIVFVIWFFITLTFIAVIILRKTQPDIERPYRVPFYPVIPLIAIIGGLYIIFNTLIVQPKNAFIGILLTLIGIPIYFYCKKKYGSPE

[5] = molecular target: BasC; assay: Surface plasmon resonance of Nb74-BasC interaction; assay type: binding, Carnobacterium sp AT7; details: read-out: KD (affinity of Nb74 for BasC)
Method: Surface plasmon resonance (Biacore T-100, GE Healthcare, Chicago, IL) was used to screen 29 Nbs (one from each family) for binding with BasC, purified as for crystallography. […] BasC was assayed at 500–2.5 nM in running buffer. […] The BasC-Nb74 complex rendered the best results initially and consequently crystals were optimized.

[6] = molecular target: T1, bacterial alanine-serine-cysteine …; assay: SPR; Biacore T-100; nanobody captured (around 200 RU) on a CM5 chip coated with anti-His antibody; BasC flowed at 500–2.5 nM; running buffer phosphate buffered saline, 0.17% DM; details: both partners purified
[7] = 5 µM Nb74 in medium, exchange with 4 mM L-alanine, NT = 100, n=1-6 and mean

In the case of CC(C)(N)C(=O)O [2-AIB, 2-aminoisobutyric acid], the Km ([1]; 2-AIB as intraliposomal substrate, read-out: intracellular Km) is reported as 34.5 ± 10 mM and the “intracellular Km relative to L-alanine Km” value ([1]; higher than L-alanine Km) is reported as ~ 10 fold.

With CC(=O)O [Acetate] the “10 μM [3H]L-alanine exchange into BasC PLs containing 4 mM of the indicated compound” value [1] was “not significant”.

In the case of CCN [Ethylamine, ethylamine], the “10 μM [3H]L-alanine exchange into BasC PLs containing 4 mM of the indicated compound” value ([1]; listed as ethylamine) is reported as “not significant”.

For NCCCC(=O)O [GABA, γ-aminobutyrate], the “10 μM [3H]L-alanine exchange into BasC PLs containing 4 mM of the indicated compound” value [1] was “not a substrate”.

In the case of NCCCCN=C(N)N [agmatine], the “intracellular apparent Km value compared to the extracellular one” value [2] is given as “two-fold higher”.

For N=C(N)NCCC[C@H](N)C(=O)O [arginine], the “intracellular apparent Km value compared to the extracellular one” value [2] is listed as “two-fold higher”.

B1: human Asc-1 (hAsc-1) wild-type (Homo sapiens) (protein)
chain: MAGHTQQPSGRGNPRPAPSPSPVPGTVPGASERVALKKEIGLLSACTIIIGNIIGSGIFISPKGVLEHSGSVGLALFVWVLGGGVTALGSLCYAELGVAIPKSGGDYAYVTEIFGGLAGFLLLWSAVLIMYPTSLAVISMTFSNYVLQPVFPNCIPPTTASRVLSMACLMLLTWVNSSSVRWATRIQDMFTGGKLLALSLIIGVGLLQIFQGHFEELRPSNAFAFWMTPSVGHLALAFLQGSFAFSGWNFLNYVTEEMVDARKNLPRAIFISIPLVTFVYTFTNIAYFTAMSPQELLSSNAVAVTFGEKLLGYFSWVMPVSVALSTFGGINGYLFTYSRLCFSGAREGHLPSLLAMIHVRHCTPIPALLVCCGATAVIMLVGDTYTLINYVSFINYLCYGVTILGLLLLRWRRPALHRPIKVNLLIPVAYLVFWAFLLVFSFISEPMVCGVGVIIILTGVPIFFLGVFWRSKPKCVHRLTESMTHWGQELCFVVYPQDAPEEEENGPCPPSLLPATDKPSKPQ
With B1 the Km ([3]; wild-type hAsc-1, HeLa cells) was 0.0675 ± 0.0042 mM and the Vmax ([3]; wild-type hAsc-1, HeLa cells) was 1703 ± 425 pmols µg protein^−1 min^−1.

B2: hAsc-1 K194A mutant (Homo sapiens; K194A) (protein)
chain: B1 chain with K194A
In the case of B2, the Km ([3]; K194A hAsc-1, HeLa cells) is reported as 0.825 ± 0.053 mM and the Vmax ([3]; K194A hAsc-1, HeLa cells) is reported as 152 ± 16 pmols µg protein^−1 min^−1.

B3: anti-BasC nanobody 74 (Nb74) (VHH)
VHH: QVQLVESGGGVVQAGGSLRLSCAASGRTFSSRAMGWFRQAPGEGREFVATISWSGSYTEYADSVKGRVTISRDNAKNTVYLQMNSLKPGDTAVYHCAAKNGGAASNYPNDYVYWGQGTQVTVSS
notes: nanobody from a llama immunised with BasC proteoliposomes, selected by phage display (vector pMESy4); Captured by its His tag on an anti-His antibody in the SPR experiment
With B3 the “stoichiometry N” value [4] was 1, the Kd [5] was 3.87 nM and the “Efflux of 10 µM [3H]L-alanine, normalized to non-treated PLs” value [1, 7] was 9.14. For the same molecule, the “Influx of 10 µM [3H]L-alanine, normalized to non-treated PLs” value [1, 7] was 105.77, the IC50 ([1]; read-out: IC50 of 10 µM [3H]L-alanine efflux, efflux in exchange with 4 mM L-alanine, Nb74 in PL medium) was roughly 300 nM and the Kd [6] was 3.9 ± 1.4 nM.
